B1: 3-61 (Fab, V domains shown)
VH: QVQLVESGAEVKKPGASVKVSCKASGYTFTSYYMHWVRQAPGQGLEWMGIINPSGGGTKYAQSLQGRVTMTRDTSTSTVYMELNSLTSEDTAVYYCARGGTPSGLDYWGKGTLVTVSS
VL: DIQMTQSPSSLSASVGDRVTITCRASQGISNYLAWYQQKPGKVPKLLIYAASTLQSGVPSRFSGSGSGTDFTLTISSLQPEDVATYYCQKYNSAPLTFGGGTKVEIKR
notes: soluble Fab from phage display library huFabL-4, Flag tag
B2: 3-62 (Fab, V domains shown)
VH: QVQLQQSGPGLVKPSQTLSLTCAISGDSVSNNSAAWNWIRQSPSRGLEWLGRTYYRSKWYTDYAVSVKSRITINPDTSKNQFSLQLNSVTPEDTAVYYCARASGYSSGQVEYWGKGTLVTVSS
VL: QSVLTQPPSVSAAPGQKVTISCSGSSSNIGNNYISWYQQVPGTAPKLLIYGNNKRPSGIPARFSGSKSGTSATLDITGLQIGDEADYYCGTWESSLRAVVFGGGTKLTVLG
notes: as for B1
B3: 3-66 (Fab, V domains shown)
VH: QVQLVESGGGVVQPGRSLRLSCAASGFPFRTYGMHWVRQAPGKGLEWVSSISSSSSYIYYADSVKGRFTISRDNAKNSLELQMNSLRAEDTAVYYCARTTRGAFDIWGKGTMVTVSS
VL: LSSELTQDPAVSVALGQTVRITCQGDSLRSYYASWYQQKPGQAPLLVIYGRNNRPSGIPDRFSGSSSGNTASLTITGAQAEDEADYYCNSRDSSGVPFGTGTQLTVLS
notes: as for B1
B4: 3-56 (Fab, V domains shown)
VH: EVQLVQSGGGVVQPGRSLRLSCAASGFTFSTYGMHWVRQAPGKGLEWVAVISYDGSKKYYADSVKGRFTISRDNSRNTVYLQMDSLRSEDTAVYYCAKDLSWPVRRLDVWGKGTMVTVSS
VL: EIVLTQSPLSLPVTLGQPASISCRSSQSLVYSTGNTYLNWFHQRPGQSPRRLIYQVSNRDSGVPDRFSGSGSGTDFTLKISRVEADDVGVYYCMQGTHWPPTFGQGTKVEIKR
notes: as for B1
B5: 3-59 (Fab, V domains shown)
VH: GVQLVQSGGGLVQPGGSLRLSCAASGFTFSSYSMNWVRQAPGKGLEWVAVISYDESNKYYADSVKGRFTISRDNSKNTLYLQMNSLRAEDTAVYYCAPGGSYHDYWGKGTLVTVSS
VL: B4 VL with V30A, Y31H, T33N, H42Q, Q55K, T97S
notes: as for B1
B6: 3-64 (Fab, V domains shown)
VH: QLQLQESGGGLVQPGGSLRLSCAASGFTFSSYAMSWVRQAPGKGLEWVSAISGSGGSTYYADSVKGRFTISRDNSKNTLYLQMNSLRAEDTAVYYCASGHSSHAFEIWGQGTTVTVSS
VL: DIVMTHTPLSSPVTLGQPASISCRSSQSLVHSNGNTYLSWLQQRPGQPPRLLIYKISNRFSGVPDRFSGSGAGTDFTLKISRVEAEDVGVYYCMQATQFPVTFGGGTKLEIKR
notes: as for B1
B7: 3-60 (Fab, V domains shown)
VH: QVQLVQSGGGVVQPGRSLRLSCAASGFTFSSYAMHWVRQAPGKGLEWVAVISYDGSNKYYADSVKGRFTISRDNAKNSLYLQMNSLRAEDTAVYYCAREQAARPTLGAFDIWGKGTTVTVSS
VL: DVVMTQSPLSLPVTPGEPASISCRSSQSLLHSNGNNYLAWYLQKPGQSPQLLMYLGSNRASGVPDRFSGSGSGTDFTLKISRVEAEDVGVYYCMQGIHLPLTFGGGTKVEIKR
notes: as for B1
B8: 3-63 (Fab, V domains shown)
VH: QVQLQESGGGVVQPGRSLRLSCAASGFTFSSYGMHWVRQAPGKGLEWVAVISYDGSNKYYADSVKGRFTISRDNSKNTLYLQMNSLRAEDTAVYYCARDRPGGMDVWGKGTMVTVSS
VL: DVVMTQSPLSLPVTLGQPASISCRSSQSLVHSNGNTYLTWFQQRPGQSPRRLIYKVSNRDSGVPDRFSGSGSGTDFTLKISRVEAEDVGVYYCMQGTRWYTFGQGTKLEIKR
notes: as for B1
B9: 3-55 (Fab, V domains shown)
VH: QVQLQQSGPGLVKPSQTLSLTCAISGDSVSSSTAAWNWIRLSPSRGLEWLGRTYYRSKWYNDYAVSVKSRINISPDTSKNQFSLQLNSVTPEDTGVYYCARGYSRSMDVWGKGTLVTVSS
VL: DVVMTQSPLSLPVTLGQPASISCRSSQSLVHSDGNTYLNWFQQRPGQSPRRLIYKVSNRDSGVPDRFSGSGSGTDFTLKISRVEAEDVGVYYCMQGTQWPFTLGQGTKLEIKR
notes: as for B1
B10: 3-65 (Fab, V domains shown)
VH: QVTLKESGGGVVQPGRSLRLSCAASEFTFRNYAMHWVRQAPGKGLEWVAVISYDGSNKYYADSVKGRFTISRDISKNMVFLQMNSLRADDTAVYYCARGTFLAYWGQGTLVTVSS
VL: EIVLTQSPLSLPVTLGQPASISCRSSQSLVHSDGNTYLSWFQQRPGQSPRRLIYKVSNRDSGVPDRFSGSGSGTDFTLKISRVEAEDVGVYYCMQGIHLPLTFGGGTKLEIKR
notes: as for B1
B11: 3-57 (Fab, V domains shown)
VH: QMQLVQSGAEVKKPGASVKVSCKASGYTFTSYYMHWVRQAPGQGLEWMGIINPSGGSTSYAQKFQGRVTMTRDTSTSTVYMELSSLRSEDTAVYYCARAGVRGVFGMDVWGKGTLVTVSS
VL: QSALTQPASVSGSPGQSITISCTGTSSDLGAYNYVSWYQQHPGKAPRLMIYDVSKRPSGVPDRFSGSKSDNTASLTISGLQAEDEADYYCSSYTSSSTLVFGGGTKVTVLS
notes: as for B1
B12: Ref #3 (antibody, human IgG1, V domains shown)
VH: QVQLVQSGAEVKKPGASVKVSCKASGYTFTSYYMHWVRQAPGQGLEWMGIINPSGGSTSYAQKFQGRVTMTRDTSTSTVYMELSSLRSEDTAVYYCARAVRNRFRFDYWGQGTLVTVSS
VL: QSALTQPASVSGSPGQSITISCTGTSSDVGSYNLVSWYQQHPGKAPKLMIYEVSKRPSGVSNRFSGSKSGNTASLTISGLQAEDEADYYCSSYAGSSTFVVFGGGTKLTVL
B13: Ref #4 (antibody, human IgG1, V domains shown)
VH: EVQLVESGGGLVQPGGSLKLSCAASGFTFNTYAMNWVRQASGKGLEWVARIRSKANNYATYYADSVKDRFTISRDDSKNTLYLQMNNLKTEDTAVYYCVRDRSRGEDYAMDYWGQGTLVTVSS
VL: DIVMTQSPLSLPVTPGEPASISCRSSKSLLHSNANTYLYWFLQKPGQSPQLLIYRMSNLASGVPDRFSGSGSGTAFTLKISRVEAEDVGVYYCMQHLEYPFTFGQGTKLEIK

Residue numbers refer to the chain shown, from its start.

The target of the first experiment is T1, biotinylated CCR8 peptide (human, N-terminal biotin).
T1 construct: first 34 residues of human CCR8 plus a C-terminal K; also called biotinylated target peptide
Kind of experiment: ELISA, soluble Fab on biotinylated CCR8 peptide captured on streptavidin. The protocol:
(§1) The wells of a microtiter plate were coated with 200 ng streptavidin protein in 100 μL Coating Buffer (0.1 M NaHCO₃, pH 8.6), and then incubated overnight at 4° C. For negative control, the wells were coated with PBS to determine non-specific binding. After shaking out the coating solution, the wells were washed three times with washing buffer (0.1% Tween 20-PBS). To prevent non-specific binding, 200 μL Blocking Buffer (3% BSA-PBS) was adding and incubated for 2 h at 37° C. After shaking out the blocking buffer, the wells were incubated with 50 ng biotinylated target peptide (SEQ ID NO: 420; see Example 10) in 100 μL Blocking Buffer for 1 h at 37° C. The control well was incubated with only 100 μL Blocking Buffer for 1 h at 37° C. After shaking out the biotinylated target peptide or buffer solution, the wells were washed 3 times with the washing buffer (0.1% Tween 20-PBS). Then 100 μL supernatant containing soluble Fab were added and incubated for 2 h at 37° C. Following three washes with washing buffer (0.1% Tween 20-PBS) for 3 times, 100 μL/well HRP conjugate of mouse anti-Flag tag mAb (Sigma A8592, 1:5000) diluted in Blocking Buffer were added and incubated for 1 h at 37° C. After washings, 3,3′,5,5′-tetramethylbenzidine (TMB) (Sigma) were added for 5 to 30 min at room temperature. The reaction was stopped by adding 50 μL/well of 1 M H₂SO₄.
Regarding B1, the “Optical Density” value worked out at 2.43 OD450.

Consider B2, for which the “Optical Density” value was found to be 3.6 OD450.

For the molecule B3, the “Optical Density” value came to 2.56 OD450.

B4: the “Optical Density” value was found to be 2.35 OD450.

As for B5, the “Optical Density” value turned out to be 1.4 OD450.

Take B6: the “Optical Density” value was determined as 3.64 OD450.

For the molecule B7, the “Optical Density” value is 3.66 OD450.

As for B8, the “Optical Density” value is 3.66 OD450.

With B9, the “Optical Density” value came out at 2.34 OD450.

In the case of B10, the “Optical Density” value was found to be 3.29 OD450.

Consider B11, for which the “Optical Density” value amounted to 2.39 OD450.

The target in the next experiment is T2, streptavidin (UniProt P22629 37-163, limits assumed).
T2 construct: control well without peptide
T2 sequence (P22629 37-163 limits assumed): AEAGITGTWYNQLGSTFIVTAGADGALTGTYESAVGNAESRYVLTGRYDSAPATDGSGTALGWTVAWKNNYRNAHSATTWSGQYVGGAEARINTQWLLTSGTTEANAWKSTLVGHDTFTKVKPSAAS
The experiment can be described thus: ELISA, soluble Fab on streptavidin-coated control well without peptide. The protocol: as §1
A general note: An ELISA detects its analyte on a solid surface through an enzyme-linked reagent.
Take B1: the “Optical Density” value was determined as 0.06 OD450.

Take B2: the “Optical Density” value was 0.07 OD450.

For the molecule B3, the “Optical Density” value was 0.1 OD450.

As for B4, the “Optical Density” value was 0.08 OD450.

Consider B5, for which the “Optical Density” value amounted to 0.06 OD450.

Consider B6, for which the “Optical Density” value was 0.07 OD450.

As for B7, the “Optical Density” value was 0.06 OD450.

Turning to B8, the “Optical Density” value stood at 0.09 OD450.

For B9, the “Optical Density” value was found to be 0.07 OD450.

For the molecule B10, the “Optical Density” value was 0.07 OD450.

Consider B11, for which the “Optical Density” value was 0.1 OD450.

A further experiment deals with CCR8 SNAP-tag (human, UniProt P51685 1-355, SNAP-tag labelled with Lumi4-Terbium). The experiment can be described thus: cell-based or functional assay.
Regarding B12, the “% of internalization at 1 µg/ml mAb (HTRF)” value amounted to 100% and the “% of internalization at 10 µg/ml mAb (HTRF)” value amounted to 90%.

As for B13, the “% of internalization at 1 µg/ml mAb (HTRF)” value was determined as 95% and the “% of internalization at 10 µg/ml mAb (HTRF)” value was determined as 103%.
